Laboratory results reported in US20150284450A1, “COMBINATION THERAPIES USING ANTI-PSEUDOMONAS PSL AND PCRV BINDING MOLECULES” (priority 2012, published 2015).

What was measured:
P. aeruginosa 6294 (O6) = assay: Acute pneumonia model in mice, strain 6294; format: in vivo, Pseudomonas aeruginosa; details: for Overall Impression, lung histology: BALB/c mice
Method: (§1) Antibodies or PBS were administered 24 hours before infection in each model. P. aeruginosa acute pneumonia, keratitis, and thermal injury infection models were performed as described (DiGiandomenico, A., et al., Proc Natl Acad Sci USA 104, 4624-4629 (2007)), with modifications. In the acute pneumonia model, BALB/c mice (The Jackson Laboratory) were infected with P. aeruginosa strains suspended in a 0.05 ml inoculum. In the thermal injury model, CF-1 mice (Charles River) received a 10% total body surface area burn with a metal brand heated to 92° C. for 10 seconds. Animals were infected subcutaneously with P. aeruginosa strain 6077 at the indicated dose. For organ burden experiments, acute pneumonia was induced in mice followed by harvesting of lungs, spleens, and kidneys 24 hours post-infection for determination of CFU.

[1] = system: P. aeruginosa 6077 (exoU+); assay: Rabbit red blood cell lysis inhibition assay with strain 6077; format: cell-based, Pseudomonas aeruginosa; details: FIG. 12F
Method: Percent inhibition of cytotoxicity analysis was analysed for the parental V2L2 mAb, mAb166 (positive control) and R347 (negative control), where the antibodies were administered to cultured broncho-epithelial cell line A549 combined with log-phase P. aeruginosa strain 6077 (exoU+) at a MOI of approximately 10. A549 lysis was assayed by measuring released lactate dehydrogenase (LDH) activity and lysis in the presence of mAbs was compared to wells without mAb to determine percent inhibition. The V2L2 mAb, mAb166 (positive control) and R347 (negative control) were evaluated for their ability to prevent lysis of RBCs, where the antibodies were mixed with log-phase P. aeruginosa 6077 (exoU^+) and washed rabbit red blood cells (RBCs) and incubated for 2 hours at 37°. Intact RBCs were pelleted and the extent of lysis determined by measuring the OD405 of the cell-free supernatant. Lysis in the presence of anti-PcrV mAbs was compared to wells without mAb to determine percent inhibition.

[2] = system: P. aeruginosa PA103A (O11); assay: Acute pneumonia model in mice, strain PA103A; format: in vivo, Pseudomonas aeruginosa; details: V2L2 0.04-5 mg/kg, FIG. 13I
Method: as §1
The in vivo effect of administration of an anti-PcrV antibodies was studied in mice using an acute pneumonia model. Groups of mice were treated with either increasing concentrations of the V2L2 antibody, a positive control anti-PcrV antibody (mAb166), or a negative control (R347), as shown in FIG. 13 (A-B). Groups of mice were also treated with either increasing concentrations of the V2L2 antibody, the PcrV antibody PcrV-02, or a negative control (R347), as shown in FIG. 13 (C-D). […]

[3] = system: P. aeruginosa 6077 (O11, cytotoxic); assay: Acute pneumonia model in mice, strain 6077; format: in vivo, Pseudomonas aeruginosa; details: IP 24 h prior to intranasal 6077 (1×10^6 CFU/animal); FIG. 13E-G
Method: as §1

[4] = system: P. aeruginosa 6206 (O11-ExoU+); assay: Acute pneumonia model in mice, strain 6206; format: in vivo, Pseudomonas aeruginosa
Method: as §1

[5] = 1.33×10^7 CFU 6294, 0.2 mg/kg (combination 0.1 mg/kg ea), Table 6A
[6] = 1.7×10^7 CFU 6294, 0.2 mg/kg (combination 0.1 mg/kg ea), Table 6B
[7] = 5.25×10^5 cfu 6206, single antibody: R347 2.1 mg/kg, V2L2 0.1 mg/kg, WapR-004 0.5 mg/kg, Table 5
[8] = 9.25×10^5 CFU 6206, 0.2 mg/kg (combination 0.1 mg/kg ea), Table 7
[9] = V2L2 0.07-5 mg/kg, intranasal 6206, FIG. 14A-B

B1: V2L2: anti-PcrV monoclonal antibody, epitope class 4; VH SEQ ID NO: 216, VL SEQ ID NO: 217 (antibody, V domains shown)
VH: EMQLLESGGGLVQPGGSLRLSCAASGFTFSSYAMNWVRQAPGEGLEWVSAITISGITAYYTDSVKGRFTISRDNSKNTLYLQMNSLRAGDTAVYYCAKEEFLPGTHYYYGMDVWGQGTTVTVSS
VL: AIQMTQSPSSLSASVGDRVTITCRASQGIRNDLGWYQQKPGKAPKLVIYSASTLQSGVPSRFSGSGSGTDFTLSISSLQPDDFATYYCLQDYNYPWTFGQGTKVEIK
modifications: V2L2 VH; V2L2 VL
P. aeruginosa 6294 (O6); 1 mg/kg, strain 6294, FIG. 13B
  protection compared to mAb166 at similar doses: significantly more potent protection than mAb166
P. aeruginosa 6294 (O6); [5]
  Bacteria: Neg-1+
  Hemorrhage, extent in words: Extensive
  Inflammatory Infiltrate: PMN 3+
  Involved Lung Surface Area: 57%
  Overall Impression, lung histology: Broncho interstitial pneumonia
P. aeruginosa 6294 (O6); [6]
  Bacteria: Neg
  Inflammatory Infiltrate: PMN 2+
  Overall Impression, lung histology: Broncho interstitial pneumonia
P. aeruginosa 6294 (O6); 1.7×10^7 CFU 6294, 0.2 mg/kg, Table 6B
  Involved Lung Surface Area: 30%
P. aeruginosa 6294 (O6); 6294, V2L2 0.04-5 mg/kg, FIG. 13I
  protection against additional strains: protects against additional Pseudomonas strains
P. aeruginosa 6294 (O6); increasing doses of V2L2 24 h before infection, out to 168 hours post-infection, FIG. 13
  effect on survival: dose-dependent effect on improved survival
[1]
  potency in prevention of RBC lysis, V2L2 vs. 29D2: more potent in prevention of RBC lysis than the 29D2
[2]
  protection against additional strains: protects against additional Pseudomonas strains
[3]
  protection in vivo (survival): provides protection in vivo
[4]; 1 mg/kg, lung, FIG. 14B
  reduction in organ CFU compared to mAb166 at similar doses: significantly greater reduction in organ CFU than mAb166
[4]; 5.25×10^5 cfu 6206, V2L2 0.1 mg/kg, W4-RAD 0.5 mg/kg, combination, 24 h post infection, FIG. 15
  organ burden / tissue clearance (lung, spleen, kidney CFU): effective in lowering organ burden
[4]; [7]
  Inflammatory Infiltrate: PMN 3+
  Involved Lung Surface Area: 55%
  Overall Impression, lung histology: Broncho interstitial pneumonia
[4]; [8]
  Inflammatory Infiltrate: PMN 2-3+
  Involved Lung Surface Area: 40%
[4]; 6206, Bs3-V2L2 0.28 mg/kg, V2L2 0.2 mg/kg 24 h before infection, monitored 120 hours, FIG. 21A
  survival, in words: survived, along with those which received the V2L2 control
[4]; BALB/c mice, 9.25×10^5 CFU 6206, 0.2 mg/kg (combination 0.1 mg/kg ea), Table 7
  Overall Impression, lung histology: Broncho interstitial pneumonia
[4]; [9]
  clearance in the kidney: little effect on clearance in the kidney
  dissemination to lung and spleen: greatly reduced dissemination to both the lung and spleen in a dose-dependent manner
